Measured values as given in patent US20190367620A1 (Merck KGaA, published 2019).

Experiments:
[1] = target: T1, human FGFR1b-IIIc extracellular domain with a HIS tag (human, UniProt P11362 22-376); experiment: ELISA, EC50 from OD450 curves, monovalent SEEDbody format
T1 construct: also called huFGFR1b-IIIc; hFGFR1b-IIIc
T1 sequence: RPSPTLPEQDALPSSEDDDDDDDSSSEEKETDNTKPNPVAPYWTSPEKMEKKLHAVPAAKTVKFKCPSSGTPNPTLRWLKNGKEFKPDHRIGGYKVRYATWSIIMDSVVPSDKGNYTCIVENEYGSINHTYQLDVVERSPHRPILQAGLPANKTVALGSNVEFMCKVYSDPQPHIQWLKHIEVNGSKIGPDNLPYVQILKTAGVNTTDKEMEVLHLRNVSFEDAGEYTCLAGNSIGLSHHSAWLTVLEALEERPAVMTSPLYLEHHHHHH
Description: The binding selectivity of the antibodies were tested by ELISA against the different FGFR family members: FGFR1, FGFR2, FGFR3 and FGFR4. Briefly plates were coated overnight with the different His6-tagged FGFR proteins, after blocking with 1% Bovine Serum albumin, 1 or 0.1 μg/ml of anti-FGFR1 antibodies were incubated for 1 h at room temperature. After washing, the bound antibodies were incubated for 1 h at room temperature with a peroxidase affiniPure F(ab′)2 Fragment goat anti-human Fc (Jackson ImmunoResearch Laboratories #109-036-098) and detection was performed using the TMB HRP Substrate solution (BioFx Lab # TMBW-1000-01).
The antibody #A08 both as an IgG1 (bivalent) and as a SEEDbody (monovalent), was affinity matured using the yeast display technology described in (Rhiel et al. 2014) and performing light chain shuffling from immunized OmniRats and naïve human library followed by CDR-H3 parsimonious mutagenesis. Following several sorting rounds, yeast clones were picked, unique clones were reformatted as described in Examples 1.6 and 3.1. The binding affinities of the anti-FGFR1 molecules against human FGFR1b-IIIb) and human FGFR1b-IIIc) were measured by ELISA using a similar protocol as described in Example 1.9. The OD450 was plotted against the antibody concentration and GraphPad Prism software was used to calculate EC₅₀ values (see FIG. 10). […] The best results were obtained with mAb #A02 and #C01 showing an EC50 improvement in both IgG1 and SEEDbody formats.

[2] = target: T2, human FGFR1b-IIIb extracellular domain with a HIS tag (human); experiment: SPR (BIAcore), SEEDbody format; target IIIb by paragraph 74 and paragraph 125, the table's title says IIIc
T2 construct: also called huFGFR1b-IIIb; hFGFR1b-IIIb
T2 chain: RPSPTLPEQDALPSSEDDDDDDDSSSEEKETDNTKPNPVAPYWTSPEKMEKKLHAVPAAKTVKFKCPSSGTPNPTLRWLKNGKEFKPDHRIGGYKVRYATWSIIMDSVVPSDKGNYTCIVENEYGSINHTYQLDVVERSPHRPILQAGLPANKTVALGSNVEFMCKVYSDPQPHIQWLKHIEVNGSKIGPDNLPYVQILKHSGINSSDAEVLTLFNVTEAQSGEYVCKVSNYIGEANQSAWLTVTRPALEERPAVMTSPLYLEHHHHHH
Description: Binding affinities of anti-FGFR1 antibodies to FGFR1 were measured by Surface Plasmon Resonance (SPR) using a GE Healthcare BIAcore 4000 instrument as follows. Goat anti-human Fc antibody (Jackson ImmunoResearch Laboratories #109-005-098) was first immobilized on BIAcore carboxymethylated dextran CM5 chip using direct coupling to free amino groups following the procedure described by the manufacturer. Antibodies were then captured on the CM5 biosensor chip to achieve approximately 200 response units (RU). Binding measurements were performed using the running HBS-EP+ buffer. A 2-fold dilution series of His-tagged FGFR1 proteins were injected at a flow rate of 30 μl/min at 25° C. Association rates (kₒₙ, per mol/s) and dissociation rates (koff, per s) were calculated using a simple 1:1 Langmuir binding model (Biacore 4000 Evaluation Software). The equilibrium dissociation constant (KD, mol) was calculated as the ratio of koff/kₒₙ.
The affinities to human FGFR1b-IIIb for the affinity matured clones reformatted as IgG and monovalent SEEDbodies were measured by BIAcore (using a protocol similar to the one described in Example 1.8) and compared to those of mAb #08 (Table 5).

FGFR1 on NCI-H520 cells = FGFR1 on NCI-H520 cells (human, UniProt P11362 22-822); experiment: cell-based or functional assay
Chain of FGFR1 on NCI-H520 cells (P11362 22-822): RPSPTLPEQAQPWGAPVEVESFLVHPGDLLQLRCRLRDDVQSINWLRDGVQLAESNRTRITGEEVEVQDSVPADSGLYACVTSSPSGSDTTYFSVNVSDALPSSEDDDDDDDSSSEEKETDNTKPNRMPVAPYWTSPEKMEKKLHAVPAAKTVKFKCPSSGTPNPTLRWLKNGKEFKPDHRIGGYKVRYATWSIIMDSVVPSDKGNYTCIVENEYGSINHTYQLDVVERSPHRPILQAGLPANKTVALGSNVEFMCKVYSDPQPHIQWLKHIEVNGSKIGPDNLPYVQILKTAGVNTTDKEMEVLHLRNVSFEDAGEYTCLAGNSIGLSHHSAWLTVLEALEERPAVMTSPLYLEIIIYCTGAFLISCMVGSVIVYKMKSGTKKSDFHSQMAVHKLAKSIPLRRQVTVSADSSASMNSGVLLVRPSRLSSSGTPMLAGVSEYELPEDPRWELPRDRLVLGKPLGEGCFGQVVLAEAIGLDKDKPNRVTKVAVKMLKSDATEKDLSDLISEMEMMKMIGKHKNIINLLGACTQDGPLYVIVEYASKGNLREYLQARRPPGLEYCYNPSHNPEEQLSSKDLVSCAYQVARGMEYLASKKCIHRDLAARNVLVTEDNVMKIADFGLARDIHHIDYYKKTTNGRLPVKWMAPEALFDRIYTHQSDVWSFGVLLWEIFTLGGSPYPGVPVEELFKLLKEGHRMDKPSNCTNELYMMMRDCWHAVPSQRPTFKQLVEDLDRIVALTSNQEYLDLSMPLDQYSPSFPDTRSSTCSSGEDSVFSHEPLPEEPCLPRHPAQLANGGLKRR

Binder | binding result [1] | Kd [2] [nM] | IC50, pFGFR1 inhibition in NCI-H520 cells, FGF1, SEEDbody (FGFR1 on NCI-H520 cells) [M] | IC50, pFGFR1 inhibition in NCI-H520 cells, FGF2, SEEDbody (FGFR1 on NCI-H520 cells) [M] | IC50, pFGFR1 inhibition in NCI-H520 cells, non-stimulated, SEEDbody (FGFR1 on NCI-H520 cells) [M]
#A02 SEEDbody (monovalent) (antibody, also called #A02-SEED(AG)) heavy: QVQLQESGPGLVKPSGTLSLTCAVSGGSISSNNWWSWVRQPPGKGLEWIGEIYHSGSTSYNPSLKSRVTISVDKSKNQFSLKLSSVTAADTAVYYCARATDWFDLWGQGTLVTVSSASTKGPSVFPLAPSSKSTSGGTAALGCLVKDYFPEPVTVSWNSGALTSGVHTFPAVLQSSGLYSLSSVVTVPSSSLGTQTYICNVNHKPSNTKVDKRVEPKSCDKTHTCPPCPAPELLGGPSVFLFPPKPKDTLMISRTPEVTCVVVDVSHEDPEVKFNWYVDGVEVHNAKTKPREEQYNSTYRVVSVLTVLHQDWLNGKEYKCKVSNKALPAPIEKTISKAKGQPFRPEVHLLPPSREEMTKNQVSLTCLARGFYPKDIAVEWESNGQPENNYKTTPSRQEPSQGTTTFAVTSKLTVDKSRWQQGNVFSCSVMHEALHNHYTQKTISLSPG EPKSSDKTHTCPPCPAPELLGGPSVFLFPPKPKDTLMISRTPEVTCVVVDVSHEDPEVKFNWYVDGVEVHNAKTKPREEQYNSTYRVVSVLTVLHQDWLNGKEYKCKVSNKALPAPIEKTISKAKGQPREPQVYTLPPPSEELALNELVTLTCLVKGFYPSDIAVEWLQGSQELPREKYLTWAPVLDSDGSFFLYSILRVAAEDWKKGDTFSCSVMHEALHNHYTQKSLDRSPG light: SYVLTQPPSVSVAPGQTARITCGGNNIGSESVHWYQQKPGQAPVLVVYDDSDRPSGIPERFSGSNSGNTATLTISRVEAGDEADYYCQVWDSTSDHRVFGGGTKLTVLGQPKAAPSVTLFPPSSEELQANKATLVCLISDFYPGAVTVAWKADSSPVKAGVETTTPSKQSNNKYAASSYLSLTPEQWKSHKSYSCQVTHEGSTVEKTVAPTECS | binds | 0.06 | – | – | –
#C01 SEEDbody (monovalent) (antibody, also called #C01-SEED(AG)) heavy: QVQLQESGPGLVKPSGTLSLTCAVSGGSISSNNWWSWVRQPPGKGLEWIGEIYHSGSTSYNPSLKSRVTISVDKSKNQFSLKLSSVTAADTAVYYCARATDWFDAWGQGTLVTVSSASTKGPSVFPLAPSSKSTSGGTAALGCLVKDYFPEPVTVSWNSGALTSGVHTFPAVLQSSGLYSLSSVVTVPSSSLGTQTYICNVNHKPSNTKVDKRVEPKSCDKTHTCPPCPAPELLGGPSVFLFPPKPKDTLMISRTPEVTCVVVDVSHEDPEVKFNWYVDGVEVHNAKTKPREEQYNSTYRVVSVLTVLHQDWLNGKEYKCKVSNKALPAPIEKTISKAKGQPFRPEVHLLPPSREEMTKNQVSLTCLARGFYPKDIAVEWESNGQPENNYKTTPSRQEPSQGTTTFAVTSKLTVDKSRWQQGNVFSCSVMHEALHNHYTQKTISLSPG EPKSSDKTHTCPPCPAPELLGGPSVFLFPPKPKDTLMISRTPEVTCVVVDVSHEDPEVKFNWYVDGVEVHNAKTKPREEQYNSTYRVVSVLTVLHQDWLNGKEYKCKVSNKALPAPIEKTISKAKGQPREPQVYTLPPPSEELALNELVTLTCLVKGFYPSDIAVEWLQGSQELPREKYLTWAPVLDSDGSFFLYSILRVAAEDWKKGDTFSCSVMHEALHNHYTQKSLDRSPG light: SYVLTQPPSVSVAPGQTARITCGGNNIGSESVHWYQQKPGQAPVLVVYDDSDRPSGIPERFSGSNSGNTATLTISRVEAGDEADYYCQVWDSTSDHRVFGGGTKLTVLGQPKAAPSVTLFPPSSEELQANKATLVCLISDFYPGAVTVAWKADSSPVKAGVETTTPSKQSNNKYAASSYLSLTPEQWKSHKSYSCQVTHEGSTVEKTVAPTECS | binds | 0.04 | – | – | –
monovalent SEEDbody #A08 (antibody, One-armed SEEDbody: full SEED(AG) heavy chain, partial hinge-CH2-CH3 SEED(GA) chain, lambda light chain; produced in CHO-LF cells (afucosylated); also called anti-FGFR1 SEEDbody; #A08 SEEDbody) heavy: EVQLQESGPGLVKPSGTLSLTCAVSGGSISSNNWWSWVRQPPGKGLEWIGEIYHSGSTSYNPSLKSRVTISVDKSKNQFSLKLSSVTAADTAVYYCARGTDWFDPWGQGTLVTVSSASTKGPSVFPLAPSSKSTSGGTAALGCLVKDYFPEPVTVSWNSGALTSGVHTFPAVLQSSGLYSLSSVVTVPSSSLGTQTYICNVNHKPSNTKVDKRVEPKSCDKTHTCPPCPAPELLGGPSVFLFPPKPKDTLMISRTPEVTCVVVDVSHEDPEVKFNWYVDGVEVHNAKTKPREEQYNSTYRVVSVLTVLHQDWLNGKEYKCKVSNKALPAPIEKTISKAKGQPFRPEVHLLPPSREEMTKNQVSLTCLARGFYPKDIAVEWESNGQPENNYKTTPSRQEPSQGTTTFAVTSKLTVDKSRWQQGNVFSCSVMHEALHNHYTQKTISLSPG EPKSSDKTHTCPPCPAPELLGGPSVFLFPPKPKDTLMISRTPEVTCVVVDVSHEDPEVKFNWYVDGVEVHNAKTKPREEQYNSTYRVVSVLTVLHQDWLNGKEYKCKVSNKALPAPIEKTISKAKGQPREPQVYTLPPPSEELALNELVTLTCLVKGFYPSDIAVEWLQGSQELPREKYLTWAPVLDSDGSFFLYSILRVAAEDWKKGDTFSCSVMHEALHNHYTQKSLDRSPG light: SYVLTQPPSVSVAPGQTARITCGGNNIGSESVHWYQQKPGQAPVLVVYDDSDRPSGIPERFSGSNSGNTATLTISRVEAGDEADYYCQVWDSTSDHRVFGGGTKLTVLGQPKAAPSVTLFPPSSEELQANKATLVCLISDFYPGAVTVAWKADSSPVKAGVETTTPSKQSNNKYAASSYLSLTPEQWKSHKSYSCQVTHEGSTVEKTVAPTECS | – | 0.08 | 7e-08 | 6e-09 | 2e-08
#B10 SEEDbody (monovalent) (antibody, also called #B10-SEED(AG)) heavy: QVQLQESGPGLVKPSGTLSLTCAVSGGSISSNNWWSWVRQPPGKGLEWIGEIYHSGSTSYNPSLKSRVTISVDKSKNQFSLKLSSVTAADTAVYYCARATDWYDPWGQGTLVTVSSASTKGPSVFPLAPSSKSTSGGTAALGCLVKDYFPEPVTVSWNSGALTSGVHTFPAVLQSSGLYSLSSVVTVPSSSLGTQTYICNVNHKPSNTKVDKRVEPKSCDKTHTCPPCPAPELLGGPSVFLFPPKPKDTLMISRTPEVTCVVVDVSHEDPEVKFNWYVDGVEVHNAKTKPREEQYNSTYRVVSVLTVLHQDWLNGKEYKCKVSNKALPAPIEKTISKAKGQPFRPEVHLLPPSREEMTKNQVSLTCLARGFYPKDIAVEWESNGQPENNYKTTPSRQEPSQGTTTFAVTSKLTVDKSRWQQGNVFSCSVMHEALHNHYTQKTISLSPG EPKSSDKTHTCPPCPAPELLGGPSVFLFPPKPKDTLMISRTPEVTCVVVDVSHEDPEVKFNWYVDGVEVHNAKTKPREEQYNSTYRVVSVLTVLHQDWLNGKEYKCKVSNKALPAPIEKTISKAKGQPREPQVYTLPPPSEELALNELVTLTCLVKGFYPSDIAVEWLQGSQELPREKYLTWAPVLDSDGSFFLYSILRVAAEDWKKGDTFSCSVMHEALHNHYTQKSLDRSPG light: SYVLTQPPSVSVAPGQTARITCGGNNIGSESVHWYQQKPGQAPVLVVYDDSDRPSGIPERFSGSNSGNTATLTISRVEAGDEADYYCQVWDSTSDHRVFGGGTKLTVLGQPKAAPSVTLFPPSSEELQANKATLVCLISDFYPGAVTVAWKADSSPVKAGVETTTPSKQSNNKYAASSYLSLTPEQWKSHKSYSCQVTHEGSTVEKTVAPTECS | binds | 0.02 | – | – | –
A05 SEEDbody (monovalent) (antibody, V domains shown) VH: not shown VL: QSALTQPASVSGSPGQSITISCTGTSSDVGSYNLVSWYQQHPGKAPKLMIYGGSKRPSGVPDRFSGSKSGNTASLTISGLQAEDEADYYCSSYTYSGDVFGTGTKVTVL | – | – | > 1e-06 | 4e-07 | > 1e-06
